The target of assay [1] is T1, LZTR1 R810W-FLAG (human, UniProt Q8N653 1-840).
T1 construct: Stably expressed in U87 cells by lentivirus; also called LZTR1-FLAG-R810W; LZTR1 RW; not shown: FLAG tag
T1 sequence (looked up): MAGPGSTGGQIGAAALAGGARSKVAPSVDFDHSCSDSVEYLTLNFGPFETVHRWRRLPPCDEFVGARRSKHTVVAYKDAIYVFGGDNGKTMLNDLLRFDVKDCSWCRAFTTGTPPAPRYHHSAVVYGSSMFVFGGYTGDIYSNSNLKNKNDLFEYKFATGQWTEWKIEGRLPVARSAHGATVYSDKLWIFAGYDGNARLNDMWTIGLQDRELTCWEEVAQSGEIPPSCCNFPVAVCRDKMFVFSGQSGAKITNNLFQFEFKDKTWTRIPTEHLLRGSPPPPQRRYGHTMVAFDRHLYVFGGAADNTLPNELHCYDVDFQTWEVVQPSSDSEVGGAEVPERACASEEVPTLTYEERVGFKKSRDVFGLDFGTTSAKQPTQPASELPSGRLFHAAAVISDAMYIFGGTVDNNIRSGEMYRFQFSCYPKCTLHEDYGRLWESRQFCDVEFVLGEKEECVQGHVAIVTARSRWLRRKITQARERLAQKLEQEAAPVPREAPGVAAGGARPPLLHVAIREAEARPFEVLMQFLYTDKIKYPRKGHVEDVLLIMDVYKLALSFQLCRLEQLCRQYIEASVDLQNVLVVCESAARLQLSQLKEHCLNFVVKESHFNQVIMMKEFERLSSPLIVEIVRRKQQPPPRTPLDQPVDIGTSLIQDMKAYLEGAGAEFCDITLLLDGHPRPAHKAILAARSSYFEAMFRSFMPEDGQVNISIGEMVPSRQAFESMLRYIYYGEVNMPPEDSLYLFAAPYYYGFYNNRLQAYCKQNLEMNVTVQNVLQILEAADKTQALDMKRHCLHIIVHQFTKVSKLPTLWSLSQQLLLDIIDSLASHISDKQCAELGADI
The assay can be described thus: IP/MS, LZTR1 R810W-FLAG, U87. Put shortly:
(§1)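 Extracted peptides in 3% acetonitrile/0.1% formic acid ran on a 50 cm C18 column into an Orbitrap Fusion, with MaxQuant identification and spectral counting.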

The target of assay [2] is T2, LZTR1-FLAG (human, UniProt Q8N653 1-840).
T2 construct: Expressed in HEK 293T, HeLa or U87 cells; used as cell lysate; also called LZTR1 wild type-FLAG; LZTR1 WT; not shown: FLAG tag at the C-terminus
T2 sequence (looked up): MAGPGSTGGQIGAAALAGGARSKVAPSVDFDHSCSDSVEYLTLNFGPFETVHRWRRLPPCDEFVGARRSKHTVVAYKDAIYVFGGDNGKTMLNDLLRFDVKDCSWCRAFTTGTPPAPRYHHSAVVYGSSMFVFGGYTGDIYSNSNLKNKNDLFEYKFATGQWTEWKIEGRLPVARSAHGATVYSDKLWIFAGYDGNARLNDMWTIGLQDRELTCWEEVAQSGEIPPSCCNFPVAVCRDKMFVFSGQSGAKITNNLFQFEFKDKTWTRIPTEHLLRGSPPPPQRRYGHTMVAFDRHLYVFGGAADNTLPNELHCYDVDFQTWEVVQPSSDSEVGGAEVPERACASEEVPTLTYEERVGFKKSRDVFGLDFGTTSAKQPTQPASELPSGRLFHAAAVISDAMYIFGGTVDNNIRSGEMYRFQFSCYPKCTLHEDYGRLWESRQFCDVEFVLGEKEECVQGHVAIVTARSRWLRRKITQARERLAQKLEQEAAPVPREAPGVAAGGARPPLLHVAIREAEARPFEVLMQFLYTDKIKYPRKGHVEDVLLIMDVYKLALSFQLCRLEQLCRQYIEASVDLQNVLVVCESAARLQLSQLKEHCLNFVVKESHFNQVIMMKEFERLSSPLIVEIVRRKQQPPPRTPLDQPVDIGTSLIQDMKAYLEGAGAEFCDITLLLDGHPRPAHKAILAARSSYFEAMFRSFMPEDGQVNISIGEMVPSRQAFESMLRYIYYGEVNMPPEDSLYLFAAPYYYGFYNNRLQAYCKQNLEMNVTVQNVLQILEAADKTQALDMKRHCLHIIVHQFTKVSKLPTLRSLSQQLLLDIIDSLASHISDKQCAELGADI
The assay is described as follows: IP/MS, LZTR1 wild type-FLAG, U87. Put shortly:
as §1

B1: KLHL26 (other, human, UniProt Q53HC5 2-615, looked up)
chain: AESGGSSGGAGGGGAFGAGPGPERPNSTADKNGALKCTFSAPSHSTSLLQGLATLRAQGQLLDVVLTINREAFPAHKVVLAACSDYFRAMFTGGMREASQDVIELKGVSARGLRHIIDFAYSAEVTLDLDCVQDVLGAAVFLQMLPVVELCEEFLKAAMSVETCLNIGQMATTFSLASLRESVDAFTFRHFLQIAEEEDFLRLPLERLVFFLQSNRLQSCAEIDLFRAAVRWLQHDPARRPRASHVLCHIRFPLMQSSELVDSVQTLDIMVEDVLCRQYLLEAFNYQVLPFRQHEMQSPRTAVRSDVPSLVTFGGTPYTDSDRSVSSKVYQLPEPGARHFRELTEMEVGCSHTCVAVLDNFVYVAGGQHLQYRSGEGAVDACYRYDPHLNRWLRLQAMQESRIQFQLNVLCGMVYATGGRNRAGSLASVERYCPRRNEWGYACSLKRRTWGHAGAASGGRLYISGGYGISVEDKKALHCYDPVADQWEFKAPMSEPRVLHAMVGAGGRIYALGGRMDHVDRCFDVLAVEYYVPETDQWTSVSPMRAGQSEAGCCLLERKIYIVGGYNWRLNNVTGIVQVYNTDTDEWERDLHFPESFAGIACAPVLLPRAGTRR
As to B1, the binding result in assay [1] and in assay [2] was “binds” each time.

B2: NDC80 (other, human, UniProt O14777 1-642, looked up)
chain: MKRSSVSSGGAGRLSMQELRSQDVNKQGLYTPQTKEKPTFGKLSINKPTSERKVSLFGKRTSGHGSRNSQLGIFSSSEKIKDPRPLNDKAFIQQCIRQLCEFLTENGYAHNVSMKSLQAPSVKDFLKIFTFLYGFLCPSYELPDTKFEEEVPRIFKDLGYPFALSKSSMYTVGAPHTWPHIVAALVWLIDCIKIHTAMKESSPLFDDGQPWGEETEDGIMHNKLFLDYTIKCYESFMSGADSFDEMNAELQSKLKDLFNVDAFKLESLEAKNRALNEQIARLEQEREKEPNRLESLRKLKASLQGDVQKYQAYMSNLESHSAILDQKLNGLNEEIARVELECETIKQENTRLQNIIDNQKYSVADIERINHERNELQQTINKLTKDLEAEQQKLWNEELKYARGKEAIETQLAEYHKLARKLKLIPKGAENSKGYDFEIKFNPEAGANCLVKYRAQVYVPLKELLNETEEEINKALNKKMGLEDTLEQLNAMITESKRSVRTLKEEVQKLDDLYQQKIKEAEEEDEKCASELESLEKHKHLLESTVNQGLSEAMNELDAVQREYQLVVQTTTEERRKVGNNLQRLLEMVATHVGSVEKHLEEQIAKVDREYEECMSEDLSENIKEIRDKYEKKATLIKSSEE
As to B2, the binding result in assay [1] and in assay [2] was “binds” throughout.

B3: MCMBP (other, human, UniProt Q9BTE3 1-642, looked up)
chain: MPCGEDWLSHPLGIVQGFFAQNGVNPDWEKKVIEYFKEKLKENNAPKWVPSLNEVPLHYLKPNSFVKFRCMIQDMFDPEFYMGVYETVNQNTKAHVLHFGKYRDVAECGPQQELDLNSPRNTTLERQTFYCVPVPGESTWVKEAYVNANQARVSPSTSYTPSRHKRSYEDDDDMDLQPNKQKDQHAGARQAGSVGGLQWCGEPKRLETEASTGQQLNSLNLSSPFDLNFPLPGEKGPACLVKVYEDWDCFKVNDILELYGILSVDPVLSILNNDERDASALLDPMECTDTAEEQRVHSPPASLVPRIHVILAQKLQHINPLLPACLNKEESKTCKFVSSFMSELSPVRAELLGFLTHALLGDSLAAEYLILHLISTVYTRRDVLPLGKFTVNLSGCPRNSTFTEHLYRIIQHLVPASFRLQMTIENMNHLKFIPHKDYTANRLVSGLLQLPSNTSLVIDETLLEQGQLDTPGVHNVTALSNLITWQKVDYDFSYHQMEFPCNINVFITSEGRSLLPADCQIHLQPQLIPPNMEEYMNSLLSAVLPSVLNKFRIYLTLLRFLEYSISDEITKAVEDDFVEMRKNDPQSITADDLHQLLVVARCLSLSAGQTTLSRERWLRAKQLESLRRTRLQQQKCVNGNEL
Take B3: the binding result in assay [1] and in assay [2] was “binds” each time.

B4: MELK (other, human, UniProt Q14680 1-651, looked up)
chain: MKDYDELLKYYELHETIGTGGFAKVKLACHILTGEMVAIKIMDKNTLGSDLPRIKTEIEALKNLRHQHICQLYHVLETANKIFMVLEYCPGGELFDYIISQDRLSEEETRVVFRQIVSAVAYVHSQGYAHRDLKPENLLFDEYHKLKLIDFGLCAKPKGNKDYHLQTCCGSLAYAAPELIQGKSYLGSEADVWSMGILLYVLMCGFLPFDDDNVMALYKKIMRGKYDVPKWLSPSSILLLQQMLQVDPKKRISMKNLLNHPWIMQDYNYPVEWQSKNPFIHLDDDCVTELSVHHRNNRQTMEDLISLWQYDHLTATYLLLLAKKARGKPVRLRLSSFSCGQASATPFTDIKSNNWSLEDVTASDKNYVAGLIDYDWCEDDLSTGAATPRTSQFTKYWTESNGVESKSLTPALCRTPANKLKNKENVYTPKSAVKNEEYFMFPEPKTPVNKNQHKREILTTPNRYTTPSKARNQCLKETPIKIPVNSTGTDKLMTGVISPERRCRSVELDLNQAHMEETPKRKGAKVFGSLERGLDKVITVLTRSKRKGSARDGPRRLKLHYNVTTTRLVNPDQLLNEIMSILPKKHVDFVQKGYTLKCQTQSDFGKVTMQFELEVCQLQKPDVVGIRRQRLKGDAWVYKRLVEDILSSCKV
As to B4, the binding result in assay [1] and in assay [2] was “binds” each time.

B5: MALT1 (other, human, UniProt Q9UDY8 2-824, looked up)
chain: SLLGDPLQALPPSAAPTGPLLAPPAGATLNRLREPLLRRLSELLDQAPEGRGWRRLAELAGSRGRLRLSCLDLEQCSLKVLEPEGSPSLCLLKLMGEKGCTVTELSDFLQAMEHTEVLQLLSPPGIKITVNPESKAVLAGQFVKLCCRATGHPFVQYQWFKMNKEIPNGNTSELIFNAVHVKDAGFYVCRVNNNFTFEFSQWSQLDVCDIPESFQRSVDGVSESKLQICVEPTSQKLMPGSTLVLQCVAVGSPIPHYQWFKNELPLTHETKKLYMVPYVDLEHQGTYWCHVYNDRDSQDSKKVEIIIGRTDEAVECTEDELNNLGHPDNKEQTTDQPLAKDKVALLIGNMNYREHPKLKAPLVDVYELTNLLRQLDFKVVSLLDLTEYEMRNAVDEFLLLLDKGVYGLLYYAGHGYENFGNSFMVPVDAPNPYRSENCLCVQNILKLMQEKETGLNVFLLDMCRKRNDYDDTIPILDALKVTANIVFGYATCQGAEAFEIQHSGLANGIFMKFLKDRLLEDKKITVLLDEVAEDMGKCHLTKGKQALEIRSSLSEKRALTDPIQGTEYSAESLVRNLQWAKAHELPESMCLKFDCGVQIQLGFAAEFSNVMIIYTSIVYKPPEIIMCDAYVTDFPLDLDIDPKDANKGTPEETGSYLVSKDLPKHCLYTRLSSLQKLKEHLVFTVCLSYQYSGLEDTVEDKQEVNVGKPLIAKLDMHRGLGRKTCFQTCLMSNGPYQSSAATSGGAGHYHSLQDPFHGVYHSHPGNPSNVTPADSCHCSRTPDAFISSFAHHASCHFSRSNVPVETTDEIPFSFSDRLRISEK
For B5, the binding result in assay [1] and in assay [2] was “binds” in each case.

B6: MAEA (other, human, UniProt Q7L5Y9 1-396, looked up)
chain: MAVQESAAQLSMTLKVQEYPTLKVPYETLNKRFRAAQKNIDRETSHVTMVVAELEKTLSGCPAVDSVVSLLDGVVEKLSVLKRKAVESIQAEDESAKLCKRRIEHLKEHSSDQPAAASVWKRKRMDRMMVEHLLRCGYYNTAVKLARQSGIEDLVNIEMFLTAKEVEESLERRETATCLAWCHDNKSRLRKMKSCLEFSLRIQEFIELIRQNKRLDAVRHARKHFSQAEGSQLDEVRQAMGMLAFPPDTHISPYKDLLDPARWRMLIQQFRYDNYRLHQLGNNSVFTLTLQAGLSAIKTPQCYKEDGSSKSPDCPVCSRSLNKLAQPLPMAHCANSRLVCKISGDVMNENNPPMMLPNGYVYGYNSLLSIRQDDKVVCPRTKEVFHFSQAEKVYIM
As for B6, the binding result in assay [1] and in assay [2] was “binds” in each case.

For the origin of these results see patent publication US20250262210A1 (TRUSTEES OF COLUMBIA UNIVERSITY IN THE CITY OF NEW YORK, published 2025).
